Measurements published in patent US20240392003A1 (NUMAB THERAPEUTICS, published 2024).
Read-outs that look alike come from different tables or passages of the source.

Key:
[1] = target: T1, human ROR1 expressed on cells (human, UniProt Q01973 30-937); test: flow cytometry, MDA-MB-231 cells
T1 construct: whole, on cells; One molecule for cell-surface ROR1 on all cell lines; the cell line is named under assay; also called hROR1; plasma membrane human ROR1
Experimental: Cell suspensions were centrifuged for 5 min at 400×g and 100 μl of cell suspensions (50,000 cells) diluted in PBS-EB (1×DPBS, 2% FCS H.I., 2 mM EDTA) were added to designated wells in a non-binding 96-wel plate. After three washing steps with PBS-EB, cells were centrifuged and washing buffer was aspirated. […] After incubation at 4° C. for 1 h, plates were washed three times using 100 μl of PBS-EB. Cells incubated with scFvs were re-suspended with 100 μl of Numab's framework specific detection antibody (PRO2268, rabbit 1 gG) and incubated at 4° C. for 30 min. Following a washing step, PRO2268 was subsequentially detected by the addition of anti-rabbit IgG antibody labeled with APC at a concentration of 2 μg/ml and incubated for 1 h at 4° C. […] Next, cells were washed again three times using 100 μl of PBS-EB per well. […] The fluorescence intensity of the APC channel was recorded for each sample and the geometric mean of the fluorescence intensity (MFI) was calculated. The data were single-referenced (subtracted for fluorescence intensity found on cells incubated with detection reagents only), and subsequent concentration-response curves were fitted using a 4-PL fit (GraphPad Prism software).
Plasma membrane binding of optimized scFvs to human ROR1-expressing MDA-MB-231 cells by flow cytometry was performed as described above.

[2] = target: T2, recombinant human ROR1 protein (Fc-Tag, Acro Biosystems RO1-H5250) (human, UniProt Q01973 30-406); test: SPR; hROR1-Fc immobilized
T2 construct: Bought; also called hROR1; recombinant human ROR1 ECD; not shown: Fc tag

[3] = target: T1, human ROR1 expressed on cells; test: flow cytometry, MDA-MB-231 cells; remark: listed apart in the source
Experimental: After three washing steps with PBS-EB, cells were centrifuged and washing buffer was aspirated. […] After incubation at 4° C. for 1 h, plates were washed three times using 100 μl of PBS-EB. Cells incubated with scFvs were re-suspended with 100 μl of Numab's framework specific detection antibody (PRO2268, rabbit 1 gG) and incubated at 4° C. for 30 min. Following a washing step, PRO2268 was subsequentially detected by the addition of anti-rabbit IgG antibody labeled with APC at a concentration of 2 μg/ml and incubated for 1 h at 4° C. […] Next, cells were washed again three times using 100 μl of PBS-EB per well. […] The fluorescence intensity of the APC channel was recorded for each sample and the geometric mean of the fluorescence intensity (MFI) was calculated. The data were single-referenced (subtracted for fluorescence intensity found on cells incubated with detection reagents only), and subsequent concentration-response curves were fitted using a 4-PL fit (GraphPad Prism software).
Plasma membrane binding of optimized scFvs to human ROR1-expressing MDA-MB-231 cells by flow cytometry was performed as described above. […] After incubation at 4° C. for 1 h, plates were washed and incubated with specific detection antibodies.

[4] = target: T3, recombinant human CD3 epsilon extra-cellular domain protein (His-Tag, SinoBiological) (human, UniProt P07766 23-126); test: SPR; hCD3ε immobilized, two-state fit (ka1)
T3 construct: extracellular domain; Bought; also called hCD3ε; human CD3ε; not shown: His tag

[5] = target: T3, recombinant human CD3 epsilon …; test: SPR; hCD3ε immobilized, two-state fit
Experimental: Binding kinetics (including affinity) of the nine selected scMATCH3 molecules to recombinant human CD3 epsilon extra-cellular domain protein (hCD3ε; His-Tag, SinoBiological) were determined by SPR analysis on a T200 device (Biacore, Cytiva). Recombinant hCD3ε molecules were covalently immobilized to a carboxymethylated dextran surface (CM5 sensorchip; Biacore, Cytiva) and a titration series of each MATCH3 molecule was injected as analyte. After each analyte injection-cycle, every flow channel on the sensor chip was regenerated (Glycine, pH 2.0 and 3 M MgCl₂), and a new concentration of MATCH3 molecule was injected. […] The apparent dissociation (kₐ₁) and association (kₐ₁) rate constants, the second reaction constants (kₐ₂ and kd) and the apparent dissociation equilibrium constant (KD) were calculated with the Biacore analysis software (Biacore Evaluation software Version 3.2, Cytiva) using a two-state binding model, and quality of the fits was monitored based on relative Chi2. The binding level was calculated as the maximum stability binding achieved normalized to the theoretical Rmax.

[6] = target: T1, human ROR1 expressed on cells; test: flow cytometry, gated on CLL patient tumor cells (ROR1 about 8k/cell), titration in the presence of human serum albumin, labelled framework-specific secondary reagent
[7] = target: T1, human ROR1 expressed on cells; test: flow cytometry, MDA-MB-231 cells, 1 mg/ml hSA
Experimental: After incubation at 4° C. for 1 h in presence of 1 mg/mi of human serum albumin (hSA), plates were washed and incubated with specific detection antibodies.
The binding of anti-ROR1xhSAxCD3 scMATCH3 molecules to plasma membrane human ROR1 was assessed by flow cytometry.

[8] = target: T3, recombinant human CD3 epsilon …; test: SPR; hCD3ε immobilized, two-state fit (kd1)
[9] = target: T2, recombinant human ROR1 protein (Fc-Tag, …); test: SPR; hROR1-Fc immobilized; remark: listed apart in the source
Experimental: Binding kinetics (including affinity) of the nine scMATCH3 molecules to recombinant human ROR1 protein (Fc-Tag, Acro Biosystems) were determined by SPR analysis on a T200 device (Biacore, Cytiva), as described in section 1.6. Recombinant human ROR1 molecules were covalently immobilized to a carboxymethylated dextran surface (CM5 sensorchip; Biacore, Cytiva) and a titration series of each MATCH3 molecule was injected as analyte. After each analyte injection-cycle, every flow channel on the sensor chip was regenerated (Glycine, pH 2.0 and 3 M MgC₂), and a new concentration of MATCH3 molecule was injected. […] The apparent dissociation (kd) and association (kₐ) rate constants and the apparent dissociation equilibrium constant (KD) were calculated with the Biacore analysis software (Biacore Evaluation software Version 3.2, Cytiva) using a one-to-one Langmuir binding model, and quality of the fits was monitored based on Chi2 and U-value, which are measures for the quality of the curve fitting. The binding level was calculated as the maximum stability binding achieved normalized to the theoretical Rmax.

[10] = target: T4, recombinant Cynomolgus monkey CD3ε (His-Tag; SinoBiological) (Cynomolgus monkey, UniProt Q95LI5 22-117); test: SPR; cCD3ε immobilized, two-state fit (Ka1)
T4 construct: Bought; also called cCD3ε; not shown: His tag
T4 sequence (looked up): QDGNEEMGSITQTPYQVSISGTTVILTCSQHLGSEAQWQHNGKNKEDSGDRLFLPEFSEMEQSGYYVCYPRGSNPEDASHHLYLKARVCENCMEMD

[11] = target: T4, recombinant Cynomolgus monkey CD3ε …; test: SPR; cCD3ε immobilized, two-state fit
Experimental: (§1) Recombinant hCD3ε molecules were covalently immobilized to a carboxymethylated dextran surface (CM5 sensorchip; Biacore, Cytiva) and a titration series of PR0726 was injected as analyte. After each analyte injection-cycle, every flow channel on the sensor chip was regenerated (Glycine, pH 2.0), and a new concentration of PR0726 was injected.
(§2) The binding kinetics to hCD3ε was measured using a multi-cycle kinetic assay, with eight analyte concentrations ranging from 0.7 to 90 nM, 1:2 diluted in running buffer (HEPES buffered saline, 0.05% Tween-20, pH 7.5; Bioconcept). The apparent dissociation (kd1) and association (kₐ₁) rate constants, the second reaction constants (kₐ₂ and kd2) and the apparent dissociation equilibrium constant (KD) were calculated with the Biacore analysis software (Biacore Evaluation software Version 3.2, Cytiva) using a two-state binding model and quality of the fits was monitored based on relative Chi2. The binding level was calculated as the maximum stability binding achieved normalized to the theoretical Rmax.
(§3) Binding kinetics to recombinant Cynomolgus monkey CD3ε (cCD3ε; His-Tag; SinoBiological) were measured as mentioned above for hCD3ε, with the exception that cCD3εwas used instead of hCD3ε.

[12] = target: T3, recombinant human CD3 epsilon …; test: SPR; hCD3ε immobilized, two-state fit; remark: listed apart in the source
Experimental: (§4) The apparent dissociation (kd1) and association (kₐ₁) rate constants, the second reaction constants (kₐ₂ and kd2) and the apparent dissociation equilibrium constant (KD) were calculated with the Biacore analysis software (Biacore Evaluation software Version 3.2, Cytiva) using a two-state binding model and quality of the fits was monitored based on relative Chi2. The binding level was calculated as the maximum stability binding achieved normalized to the theoretical Rmax.

[13] = target: T3, recombinant human CD3 epsilon …; test: SPR; hCD3ε immobilized, two-state fit (Kd1)
Experimental: as §4

[14] = target: T3, recombinant human CD3 epsilon …; test: SPR; hCD3ε immobilized, two-state fit (Ka1)
Experimental: as §4

[15] = target: T4, recombinant Cynomolgus monkey CD3ε …; test: SPR; cCD3ε immobilized, two-state fit (Kd1)
Experimental: as §1, §2, §3

[16] = target: T3, recombinant human CD3 epsilon …; test: SPR; hCD3ε immobilized, two-state fit; remark: listed apart in the source
Experimental: (§5) Binding kinetics (including affinity) of the four MATCH4 molecules to recombinant human CD3 epsilon extra-cellular domain protein (hCD3ε; His-Tag, SinoBiological) were determined by SPR analysis on a T200 device (Biacore, Cytiva). Recombinant hCD3ε molecules were covalently immobilized to a carboxymethylated dextran surface (CM5 sensorchip; Biacore, Cytiva) and a titration series of each MATCH4 molecule was injected as analyte. After each analyte injection-cycle, every flow channel on the sensor chip was regenerated (Glycine, pH 2.0 and 3 M MgCl₂), and a new concentration of MATCH4 molecule was injected. […] The apparent dissociation (kd1) and association (kₐ₁) rate constants, the second reaction constants (kₐ₂ and kd2) and the apparent dissociation equilibrium constant (KD) were calculated with the Biacore analysis software (Biacore Evaluation software Version 3.2, Cytiva) using a two-state binding model, and the quality of the fits was monitored based on relative Chi2. The binding level was calculated as the maximum stability binding achieved normalized to the theoretical Rmax.

[17] = target: T1, human ROR1 expressed on cells; test: cell-based or functional assay
[18] = target: T1, human ROR1 expressed on cells; test: flow cytometry, MDA-MB-231 cells, 1 mg/ml hSA; remark: listed apart in the source
Experimental: After incubation at 4° C. for 1 h in presence of 1 mg/ml of human serum albumin (hSA), plates were washed and incubated with specific detection antibodies.
The binding of MATCH4 molecules to plasma membrane-based human ROR1 was assessed by flow cytometry. The calculated EC₅₀, rel.

[19] = target: T3, recombinant human CD3 epsilon …; test: SPR; hCD3ε immobilized, two-state fit (kd1); remark: listed apart in the source
[20] = target: T1, human ROR1 expressed on cells; test: cell-based or functional assay; remark: listed apart in the source
[21] = target: T3, recombinant human CD3 epsilon …; test: SPR; hCD3ε immobilized, two-state fit (Ka1); remark: listed apart in the source
Experimental: as §5

[22] = target: T1, human ROR1 expressed on cells; test: flow cytometry, JIMT-1 cells (ROR1-positive)
[23] = target: T1, human ROR1 expressed on cells; test: cell-based or functional assay; remark: listed apart in the source
[24] = target: T2, recombinant human ROR1 protein (Fc-Tag, …); test: SPR; hROR1-Fc immobilized (Avidity)
[25] = target: T5, human ROR1 (Peprotech 160-054) (human, UniProt Q01973 30-406); test: SPR; MATCH4 captured, hROR1 analyte (Affinity)
T5 construct: Bought, used as analyte; also called hROR1; recombinant human ROR1 protein
Experimental: Binding affinity without avidity was determined by using a proprietary anti-framework rabbit IgG (rlgG21-57-20-B11) immobilized to a carboxymethylated dextran surface (CM5 sensorchip; Biacore, Cytiva) to capture the MATCH4 molecules on the surface. A titration series of human ROR1 (Peprotech 160-054) molecule was injected as analyte. After each capture-analyte injection cycle, every flow channel on the sensor chip was regenerated (3 M MgCl₂), and a MATCH4 molecule was captured again followed by a different concentration of human ROR1. The binding kinetics to human ROR1 were measured using a multi-cycle kinetic assay, with ten analyte concentrations ranging from 0.088 to 90 nM, 1:2 diluted in running buffer (HEPES buffered saline, 0.05% Tween-20, pH 7.5; Bioconcept).
For both assays, the apparent dissociation (kd) and association (kₐ) rate constants and the apparent dissociation equilibrium constant (KD) were calculated with the Biacore analysis software (Biacore Evaluation software Version 3.2, Cytiva) using a one-to-one Langmuir binding model and quality of the fits was monitored based on Chi2 and U-value, which are measures for the quality of the curve fitting. The binding level was calculated as the maximum stability binding achieved normalized to the theoretical Rmax.

B1: PRO2271 (scFv, V domains shown)
VH: QSQLVESGGGLVQPGGSLRLSCAVSGIDLSRNAMSWVRQAPGKGLEWIGIILTSGSTYYASWAKGRFTISKTSTTLDLQMNSLRAEDTAVYFCVRGIASSSLKSFWGQGTLVTVSS
VL: AQQLTQSPSSLSASVGDRVTITCQASQNVWNNNYLSWFQQKPGKPPKLLIVTASTLASGVSSRFSGSGSGTDFTLTISSLQPEDFATYYCAGGFSGEIRAFGTGTKVTVLG
notes: scFv, T cell score optimized variant of PRO2062; also called 55-39-G02-sc03
EC50 [1]: 630 pM
Rel. maximum binding (MFIscFv/MFIPRO2213) [1]: 0.87
Kd [2]: 364 pM
koff [2]: 0.000578 s⁻¹
kon [2]: 1.59e+06 M⁻¹ s⁻¹
fold lower apparent binding affinity than PRO2062 [3]: ~2 fold

B2: PRO2668 (bispecific antibody)
chain: AFELTQSPSSLSASVGDRVTITCQASESINSRLAWYQQKPGQPPKLLIYDASDLTSGVPSRFSGSGSGTDFTLTISSLQPEDFATYYCQGYGGSSTTTFGCGTKLTVLGGGGGSEVQLVESGGGRVQPGGSLRLSCAASGFSLSSYDMSWVRQAPGKGLAWIGASYASGPTYYASWAKGRFTISRDNSKNTVYLQMNSLRAEDTATYFCARGGWTGTSHSNIWGQGTQVTVSSGGGGSGGGGSGGGGSGGGGSDIQMTQSPSSLSASVGDRVTITCQSSQSVFSNNYLAWFQQKPGQSPKRLIYSASTLASGVPSRFSGSGSGTDFTLTISSLQPEDFATYYCLGSYACSSADCYVFGTGTKVTVLGGGGGSEVQLVESGGGRVQPGGSLRLSCAASGFSLSSYAMNWVRQAPGKCLEWIGHINAGDIAYYATWAKGRFTISRDNSKNTVYLQMNSLRAEDTATYFCARGAGGFSTGPFKLWGQGTQVTVSSGGGGSGGGGSAQQLTQSPSSLSASVGDRVTITCQASQNVWNNNYLSWFQQKPGKPPKLLIVTASTLASGVSSRFSGSGSGTDFTLTISSLQPEDFATYYCAGGFSGEIRAFGCGTKVTVLGGGGGSGGGGSGGGGSGGGGSQSQLVESGGGRVQPGGSLRLSCAVSGLSLSRNAMSWVRQAPGKCLEWIGIILTSGSTYYASWAKGRFTISKDNSKNTVYLQMNSLRAEDTATYFCVRGIASSSLKSFWGQGTQVTVSS
notes: trispecific anti-ROR1 x hSA x CD3 scMATCH3, single chain, optimized variant of PRO2510; also called 19-04-A10-sc06(RTQ) scDb-o/28-21-D09-sc04 (RTQ) scDb-i/55-39-G02-sc05(RTQ)-scFv; RPO2668
kon [4]: 2.5e+06 M⁻¹ s⁻¹
Kd [5]: 1800 pM
ka2 [5]: 0.0049 s⁻¹
kd2 [5]: 0.0023 s⁻¹
EC50 (read off the curve) [6]: ~1000 pM
EC50 [7]: 740 pM
Rel. maximum binding (MFIscMATCH3/MFIPRO2213) [7]: 2.89
koff [8]: 0.0047 s⁻¹
Kd [9]: 280 pM
koff [9]: 0.00056 s⁻¹
kon [9]: 2e+06 M⁻¹ s⁻¹

B3: PRO726 (scFv, V domains shown)
VH: EVQLVESGGGLVQPGGSLRLSCAASGFSLSSYDMSWVRQAPGKGLAWIGASYASGPTYYASWAKGRFTISRDNSKNTVYLQMNSLRAEDTATYFCARGGWTGTSHSNIWGQGTLVTVSS
VL: DIQMTQSPSSLSASVGDRVTITCQSSQSVFSNNYLAWFQQKPGQSPKRLIYSASTLASGVPSRFSGSGSGTDFTLTISSLQPEDFATYYCLGSYACSSADCYVFGTGTKVTVLG
notes: scFv; also called 28-21-D09-sc04; anti-CD3 scFv
kon [10]: 820000 M⁻¹ s⁻¹
Kd [11]: 4800 pM
Kd [12]: 5300 pM
koff [13]: 0.0055 s⁻¹
kon [14]: 650000 M⁻¹ s⁻¹
koff [15]: 0.0062 s⁻¹

B4: PRO2592 (bispecific antibody)
chain 1: AQQLTQSPSSLSASVGDRVTITCQASQNVWNNNYLSWFQQKPGKPPKLLIVTASTLASGVSSRFSGSGSGTDFTLTISSLQPEDFATYYCAGGFSGEIRAFGCGTKVTVLGGGGGSGGGGSGGGGSGGGGSQSQLVESGGGLVQPGGSLRLSCAVSGIDLSRNAMSWVRQAPGKCLEWIGIILTSGSTYYASWAKGRFTISKTSTTLDLQMNSLRAEDTAVYFCVRGIASSSLKSFWGQGTLVTVSSGGGGSGGGGSAFELTQSPSSLSASVGDRVTITCQASESINSRLAWYQQKPGQPPKLLIYDASDLTSGVPSRFSGSGSGTDFTLTISSLQPEDFATYYCQGYGGSSTTTFGCGTKLTVLGGGSGGSDIQMTQSPSSLSASVGDRVTITCQSSQSVFSNNYLAWFQQKPGQSPKRLIYSASTLASGVPSRFSGSGSGTDFTLTISSLQPEDFATYYCLGSYACSSADCYVFGTGTKVTVLG
chain 2: AQQLTQSPSSLSASVGDRVTITCQASQNVWNNNYLSWFQQKPGKPPKLLIVTASTLASGVSSRFSGSGSGTDFTLTISSLQPEDFATYYCAGGFSGEIRAFGCGTKVTVLGGGGGSGGGGSGGGGSGGGGSQSQLVESGGGLVQPGGSLRLSCAVSGIDLSRNAMSWVRQAPGKCLEWIGIILTSGSTYYASWAKGRFTISKTSTTLDLQMNSLRAEDTAVYFCVRGIASSSLKSFWGQGTLVTVSSGGGGSGGGGSEVQLVESGGGLVQPGGSLRLSCAASGFSLSSYDMSWVRQAPGKGLAWIGASYASGPTYYASWAKGRFTISRDNSKNTVYLQMNSLRAEDTATYFCARGGWTGTSHSNIWGQGTLVTVSSGGGSGGGSGGGSGEVQLVESGGGLVQPGGSLRLSCAASGFSLSSYAMNWVRQAPGKCLEWIGHINAGDIAYYATWAKGRFTISRDNSKNTVYLQMNSLRAEDTAVYFCARGAGGFSTGPFKLWGQGTLVTVSS
notes: heterodimeric MATCH4, bivalent for ROR1, monovalent for CD3 and hSA; also called MATCH4 with 55-39-G02-sc06 / 19-04-A10-sc06 / 28-21-D09-sc04 / 55-39-G02-sc06
Ka2 [16]: 0.0036 s⁻¹
Kd [16]: 6300 pM
Kd2 [16]: 0.0036 s⁻¹
Avg. % max. CD4 T cell act. (JIMT-1) [17]: 23%
Avg. % max. CD4 T cell act. (MDA-MB-231) [17]: 79%
Avg. % max. CD4 T cell act. (SKOV3) [17]: 75%
Avg. EC50 (nM) CD4 T cell act. (JIMT-1) [17]: 9.1 nM
Avg. EC50 (nM) CD4 T cell act. (MDA-MB-231) [17]: 0.005 nM
Avg. EC50 (nM) CD4 T cell act. (SKOV3) [17]: 0.76 nM
EC50 [18]: 720 pM
Rel. maximum binding (MFIMATCH4/MFIPRO2213) [18]: 2.41
rel. EC50 (EC50, PRO2213/EC50, MATCH4) [18]: 0.94
koff [19]: 0.0055 s⁻¹
Avg. % max. lysis (JIMT-1) [20]: 24.9%
Avg. % max. lysis (MDA-MB-231) [20]: 47.1%
Avg. % max. lysis (SKOV3) [20]: 44.7%
Avg. EC50 (nM) CD8 T cell act. (MDA-MB-231) [20]: 0.011 nM
Avg. EC50 (nM) CD8 T cell act. (SKOV3) [20]: 1.6 nM
Avg. EC50 (nM) Cytotoxicity (JIMT-1) [20]: 3.3 nM
Avg. EC50 (nM) Cytotoxicity (MDA-MB-231) [20]: 0.008 nM
Avg. EC50 (nM) Cytotoxicity (SKOV3) [20]: 5.37 nM
kon [21]: 430000 M⁻¹ s⁻¹
EC50 (read off the curve) [22]: ~500 pM
Avg. % max. CD8 T cell act. (JIMT-1) [23]: 15.5%
Avg. % max. CD8 T cell act. (MDA-MB-231) [23]: 67%
Avg. % max. CD8 T cell act. (SKOV3) [23]: 54.7%
Avg. EC50 (nM) CD8 T cell act. (JIMT-1) [23]: 9.8 nM
Avg. EC50 (nM) CD8 T cell act. (MDA-MB-231) [23]: 0.011 nM
Avg. EC50 (nM) CD8 T cell act. (SKOV3) [23]: 1.6 nM
Kd [24]: 28.7 pM
koff [24]: 5.69e-05 s⁻¹
kon [24]: 1.98e+06 M⁻¹ s⁻¹
Kd [25]: 5000 pM
koff [25]: 0.00049 s⁻¹
kon [25]: 98000 M⁻¹ s⁻¹
